How the values were obtained:
[1] = target: isolated HOIP-RBR/UbcH5B~ubiquitin complex (UniProt Q96EP0); test: AUC
[2] = target: isolated HOIP-RBR/UbcH5B~ubiquitin complex (UniProt Q96EP0); test: ITC

stoichiometry N [1] | Kd [2] [µM] | Substance
2 | – | isolated HOIP-RBR/UbcH5B~ubiquitin complex (from UniProt Q96EP0 696-1072; P62837 2-147; P0CG48 1-76)
– | > 50 | mono-ubiquitin (untagged, native N- and C-termini) (from UniProt P0CG48 1-76) (natural protein)
